Data: paper doi:10.1101/2021.03.04.433768 (bioRxiv, 2021)

Molecular target: HIV-1 envelop trimer (BG505 DS-SOSIP) (HIV-1 group M subtype A, isolate BG505, UniProt Q2N0S6, stabilised)

B1: VHH9 row 4 (VHH9 group, Nb10-Nb13) (VHH)
VHH: QVKLEESGGGSVQAGGSLRLSCTAPGFTSNSCGMAWYRQAPGKEREFVSSISTDGTTSYADSVKGRFTISKDKAKDTVYLQMNSLKPEDTAMYSCKTYGPYCYFDVWGAGTTVTVSA
binding result: binds
